B1: GMCL1 (parent)
chain: FCYCAGSHKRKRSSGSFCYCHPDS
B2: FAM9B (parent)
chain: EDLTAKRKRMKMDKTCSKTKNKSK

Variants of: B1
Experiment: protein stability index of a GFP-peptide fusion (GPS, HEK-293T) (PSI 1-6); higher = more stable
Settings: c terminus: a fixed tail appended
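Also: lentivirally expressed fusions sorted by FACS into six bins by GFP to DsRed ratio, PSI derived from sequencing read proportions per bin multiplied by bin number.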

Protein stability index, by site and new letter:
P22: L 1.63, Y 2.02, N 2.69, H 2.29, A 2.64, V 1.96, D 2.78, E 2.01, I 1.47, G 2.44, Q 1.91, F 1.38, K 2.09, T 1.32
Y19: L 1.96, D 2.9, Q 3.03, S 3.31, M 3, V 3.03, K 3.4
S16: T 2.29, Y 2.14, Q 1.69, W 2.06, C 1.91, K 3.24, F 2.41, V 2.16, I 2.49, D 1.88, M 2.44
G6: Y 2.59, S 2.39, Q 2, W 2.84, K 1.5, R 2.05, D 1.91, C 2.53, L 2.44, F 1.92, M 2.48, I 1.54, E 1.86, V 2.68
C20: P 1.94, R 1.68, F 1.84, L 2.18, Q 1.5, E 1.88, K 1.58, N 1.99
K11: S 2.85, D 2.45, H 2.18, R 1.98, M 2.29, P 2.31, C 1.77, L 2.41
G15: F 1.8, H 2.07, V 2.6, C 1.5, N 2.81, T 1.96, L 3.16, A 1.61, R 1.62, S 2.17, M 1.21, P 1.6, W 2.26, I 2.41, Y 2.56, E 2.67
S24: F 1.61, P 1.88, V 2.12, H 2.09, W 1.38, Q 2.9, E 2.51, C 1.51, L 1.91, T 2.02
C4: N 2.26, T 2.06, E 2.01, P 1.53, D 1.74, L 2.81, I 1.56, K 2.07, F 1.65, M 2.52, H 1.35, V 2.27, S 2.55
R12: N 2.01, P 2.44, A 2.04, Q 2.33, H 1.96, G 1.38, S 1.74, L 1.63, M 1.54, T 2.43, I 1.75, W 2.9, F 1.64
A5: V 2.67, F 2.37, G 1.5, E 2.33, M 1.88, Y 1.89, I 3.03, N 2.03, D 2.38, K 2.53, W 2.26, T 1.38, H 2.26, S 2, P 2.58
S7: G 1.02, V 1.93, I 1.75, P 1.7, M 1.98, E 2.2, A 2.15
R10: T 2.27, G 2.27, V 1.81, Y 1.85, Q 2.29, N 2.24, F 1.4, K 1.96, D 2.02, S 1.82
C18: G 2.18, H 1.77, S 2.65, I 2.27, V 1.83, L 2.4, A 2.74, D 1.87, Q 2.63, Y 1.14, T 1.79
Y3: H 1.81, G 1.7, P 1.76, I 2.46, E 2.5, L 2.96, S 2.25, V 2.07, C 1.75
H21: R 2.54, Q 2.74, S 2.87, V 2.51, G 2.55, L 2.88, P 2.21, N 2.43, I 2.69, E 2.73, W 1.63
D23: I 1.83, A 1.35, S 1.94, G 2.27, Q 2.34, E 2.13, M 2.39, Y 2.06, N 1.92
F1: N 3.81, I 3.79, D 4.2, H 3.17, R 3.85, E 4.31, P 4.21, Q 3.82, M 3.46, L 2.8, V 3.65, S 3.78
K9: P 1.52, F 2.13, S 2.76, M 1.77, Y 2.8, T 1.29, C 2, N 2.05, A 1.63, H 1.86
H8: M 1.66, N 2.19, K 1.99, T 1.67, S 2.33, P 1.94, C 2.37, F 1.97, Q 1.43, I 1.48, E 2.1
S13: A 1.95, R 1.85, W 1.84, C 2.17, Y 1.7, H 2.21, G 1.56, V 1.86, L 2.5, K 1.96, E 2.02, I 1.88
C2: S 2.25, I 1.94, K 2.06, P 1.53, R 3.48, G 2.7
S14: F 2.35, P 1.93, H 2.79, D 2.18, G 1.89, N 2.37, W 2.03, Y 2.07, A 2.2, T 1.46, V 1.89, I 1.64, C 1.86
F17: C 3.2, T 2.27, M 2.15, P 2.98, D 2.84, H 2.46, W 1.9, E 3.01, G 2.19, R 2.53, L 2.3, N 2.06

Variants of: B2
Experiment: as above
Settings: c terminus: a fixed tail appended

Protein stability index, by site and new letter:
K11: T 4.49, V 5.08, E 5.29
T19: F 5.29, S 5.62
K18: A 4.86, H 5.3
E1: P 4.9, R 4.64, F 4.53
S17: H 4.8, K 4.55
D13: N 5.3, S 4.89, P 4.66, F 4.26, W 4.8
M12: K 4.79, A 5.02, D 5.18
K22: N 4.83, V 4.39, L 4.39, Q 4.74, G 4.78, M 4.47
K6: D 5.33, P 5.59, C 4.78
T15: H 4.6, Y 5, Q 5.42, C 5.36
L3: R 5.17, C 5.09, D 5.5
T4: V 5.02, Q 4.7, P 4.96, D 5.5
R7: N 4.93, D 5.41, Q 5.32
M10: E 5.43, Y 4.94
A5: W 5.3
N21: T 5.42, D 5.17, W 4.4, F 4.57
D2: K 4.9, F 3.65, N 4.63
K24: V 4.62, H 4.71, I 4.68
K20: V 4.32, P 4.75, R 4.76, M 4.57, S 4.84
R9: E 5.12, Q 5.58, K 5.33, G 4.9
S23: A 5.7, Y 5.07
C16: V 5.53, Q 5.45
K8: G 4.75, C 5.09, Q 3.39
